Reference: patent US20250382355A1

B1: 11F8 VHH-Fc (Fc fusion)
chain: QVQLVESGGGLVQAGGSLRLSCAASGRTVGYYAVGWFRQAPGKERDFVAAISWSGRNTNYADSVTGRFTIFRDNAKNTVDLQMNSLKPEDTAVYYCAADYWNYGSGSEVPNNYDTWGQGTQVTVSS
B2: 13C8 VHH-Fc (Fc fusion)
chain: QVQLVESGGGLVQAGGSLRLSCAASGRTVNKYMTGWFRQTPGKEREFVASIDWSSTTTHYANSVKGRFTISRDKVKNTVYLQMNGLKPEDTAVYYCAAHQDSSYGYTILPIDYDSWGQGTQVTVSS
B3: 5A6 VHH-Fc (Fc fusion)
chain: QVQLVESGGGLAQAGGSLRLSCATSGLTFSMSAMGWFRQAPGNEREFVGVINWNGGSSRYADSVRGRFTISRDNAKNTVYLQMNSLKPEDTGVYYCAADALNIGTGEVNPRLYDYWGQGTQVMVSS
B4: 3D4 VHH-Fc (Fc fusion)
chain: QVQLVESGGGLVQPGGSLRLSCAASGFTLDLNSIGWFRQAPGKEREGVSCISPSGSRMHYADSVKGRFTISRDNAKNTVYLQMNSLKPEDTAVYYCATGSPSYHYCSMYGLEYDSWGQGTQVTVPS
B5: 19C10 VHH-Fc (Fc fusion)
chain: QVQLVESGGGLVQPGGSLRLSCAASGFTLDLNSIGWFRQAPGKEREGVSCISPSASSTHYADSVKGRFTISRDNAKNTVYLQMNSLKPEDTAVYYCATGTPSYHYCSMYGLEYDDWGQGTQVTVSS
B6: 7A9 VHH-Fc (Fc fusion)
chain: QVQLVESGGGLVQAGGSLRLSCSASGGTASRSAMGWFRQAPGKEREFVAGISRRNSGSTYVADSYEDSVKGRFTISRDNAKNTIYLQMNSLKPEDTAVYYCAAEPTLGWYVPRRSVEYEYWGQGTQVTVSS
B7: 19E10 VHH-Fc (Fc fusion)
chain: QVQLVESGGGLVQPGGSLRLSCVASGSTISINSMGWYRQAPGKAREMVATITNDGPIKYADPVKGRFTISRDNPKNTVYLQMNSLKPEDTAVYYCVADRAYWLAGEWEYWGQGTQVTVSS
B8: 9B2 VHH-Fc (Fc fusion)
chain: QVQLVESGGGLVQPGGSLRLSCAASGFTLDNYAIGWFRQAPGKEREGVSCISSSDGDTQYADSVKGRFTISRDNAKNTVYLQMNSLKPEDTAVYYCAVEKVYARSWFFHLCSELDFGSWGQGTQVTVSS
B9: 15H7 VHH-Fc (Fc fusion)
chain: QVQLVESGGRLVQAGGSLRLSCAAPGRTFRNLTLGWFRQAPGKEREFVASTSWPDDEMTYYTDSVKGRFTISRDNAKNTVYLQMNSLKPEDTAVYYCAAASWSGRSTLSYDYDYWGQGTQVTVST
B10: 1A11 VHH-Fc (Fc fusion)
chain: QVQLVESGGGLVQAGGSLRLSCEVSGSIYSINSMGWYRQAPGKQRELVAGIVSDGRINYADSVKGRFTISRAKNTVYLQMNSLKPEDTAVYYCAADRAFVYAGDYDYLGQGTQVTVSS
B11: 1E4 VHH-Fc (Fc fusion)
chain: QVLLVESGGGLVQAGGLLRLACSASGRTFTENVMGWFRQAPGKEREFVAAINWNTGSTYYSDSRKGRFTISKDNAKNTMFLQINNLKPEDTAVYYCGGTSSSYYYIGEFIPDYWGQGTQVTVSS
B12: 8E9 VHH-Fc (Fc fusion)
chain: QVQLVESGGGLVEAGGSLRLSCVASGSSSSINAMGWYRQAPGKQRELVASISHDGETKYANSVKGRFTISRGNAKNTIYLQMNSLKPEDTAVYYCVGDVAWVVVAGEYDYWGQGTQVTVSS
B13: 19B8 VHH-Fc (Fc fusion)
chain: QVQLVESGGGLVQAGGSLRLSCAASGRTFTNYAMGWFRQAPGKEREFVAAISWSGGGTNYADSVKGRFTISRDNAKNTVYLQMNSPKPEDTAVYYCATTLGYYGSSSRLYEYWGQGTQVTVSS
B14: 10B8 VHH-Fc (Fc fusion)
chain: QVQLVESGGGLVQPGGSLRLSCAASGITLDYYAIAWFRQAPGKEREGVSCFCSSDGDIRYADSVKGRFTISRDNAKNTVYLQMNSLKPEDTAVYYCATERVYSSTWFFHRYSELDFGSWGRGTQVTVSS
B15: 15H1 VHH-Fc (Fc fusion)
chain: QVQLVESGGGLAQAGGSLRLSCASSGLIFSGSAMGWFRQAPGKEREFVGVISWNGRTTYADSVKGRFTISRDDAVNMVWLQMNNLKPEDTAVYYCAADHLNYGSGDVNPRTYDYWGQGTQVTVSS
B16: 5D7 VHH-Fc (Fc fusion)
chain: QVQLVESGGGLVQAGGSLRLSCAASGRTGSRYIMGWFRQAPGKEREFVAAINWRGDSTYYADSVKGRFTIARDNAKNTAYLQMNSLKPEDTAVYYCVADRGESYYYTRSTEYTYWGQGTQVTVSS

What follows are binders tested against SARS-CoV-2 WT spike on rVSV-deltaG-Luc pseudovirus (SARS-CoV-2), P0DTC2 (assay: cell-based or functional assay).
Binder B1 has a pseudovirus neutralization IC50 of 1.07 nM.
B2 gave a pseudovirus neutralization IC50 of 6.69 nM.
Work on B3 yielded a pseudovirus neutralization IC50 of 8.57 nM.
B4 gave a pseudovirus neutralization IC50 of 1.22 nM.
Work on B5 yielded a pseudovirus neutralization IC50 of 1.49 nM.
B6 showed a pseudovirus neutralization IC50 of 110 nM.
Work on B7 yielded a pseudovirus neutralization IC50 of 1.53 nM.
In the case of B8, the pseudovirus neutralization IC50 is reported as 1.93 nM.
In the case of B9, the pseudovirus neutralization IC50 is reported as 1.33 nM.
Binder B10 has a pseudovirus neutralization IC50 of 0.57 nM.
Work on B11 yielded a pseudovirus neutralization IC50 of 0.31 nM.
With B12 the pseudovirus neutralization IC50 was 12.4 nM.
In the case of B13, the pseudovirus neutralization IC50 is reported as 53.5 nM.
B14 was tested, and the pseudovirus neutralization IC50 was 0.68 nM.
Binder B15 has a pseudovirus neutralization IC50 of 5.04 nM.
In the case of B16, the pseudovirus neutralization IC50 is reported as 6.52 nM.
